In publication PMC12593362, “Mapping the Role of Monomer Conformation in the Amyloid Formation of α‑Synuclein Splice Variants” (Journal of the American Chemical Society, 2025):

Target: the molecule itself
Assay: thioflavin T fluorescence + pelleting assay + negative stain TEM; de novo self-assembly into amyloid fibrils; 100 μM monomer in 20 mM sodium phosphate pH 7.4 with 0 mM NaCl, 37 °C, shaking with a Teflon polyball

B1: α-synuclein splice variant lacking the residues encoded by exons 3 and 5 (αSynΔ3Δ5) (natural protein)
chain: not shown
notes: made from the αSynΔ3 construct with the exon 5 deletion primers; natural splice isoform; No tag is named; Used as soluble monomer and as sonicated fibril seeds; source: E. coli BL21 DE3, purified (boiling, ammonium sulfate precipitation, anion exchange, SEC)
- binding result: binds
